Test results from PMC5737477.

Key:
[1] = target: RAGE (full-length, recombinant);MRE11 (Mus musculus?;, UniProt Q62151;P49959 1-402;1-708, |); assay: EMSA
[2] = target: RAGE (full-length, recombinant) (UniProt Q62151 1-402); assay: EMSA
Sequence of RAGE (full-length, recombinant) (Q62151 whole entry): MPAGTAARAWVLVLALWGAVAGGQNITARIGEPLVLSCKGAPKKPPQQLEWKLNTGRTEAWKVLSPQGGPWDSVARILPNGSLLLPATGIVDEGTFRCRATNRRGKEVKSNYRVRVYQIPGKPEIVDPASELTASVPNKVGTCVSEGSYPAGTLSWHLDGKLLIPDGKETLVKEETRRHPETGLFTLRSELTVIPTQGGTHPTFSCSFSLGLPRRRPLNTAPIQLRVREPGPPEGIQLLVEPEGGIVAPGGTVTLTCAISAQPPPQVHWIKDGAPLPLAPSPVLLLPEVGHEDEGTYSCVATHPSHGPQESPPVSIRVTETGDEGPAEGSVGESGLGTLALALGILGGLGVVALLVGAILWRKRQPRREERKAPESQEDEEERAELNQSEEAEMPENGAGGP

Sequence of RAGE (full-length, recombinant);MRE11 (Q62151 whole entry, chain 1 of 2): as the sequence (Q62151 whole entry) above
Sequence of RAGE (full-length, recombinant);MRE11 (P49959 whole entry, chain 2 of 2): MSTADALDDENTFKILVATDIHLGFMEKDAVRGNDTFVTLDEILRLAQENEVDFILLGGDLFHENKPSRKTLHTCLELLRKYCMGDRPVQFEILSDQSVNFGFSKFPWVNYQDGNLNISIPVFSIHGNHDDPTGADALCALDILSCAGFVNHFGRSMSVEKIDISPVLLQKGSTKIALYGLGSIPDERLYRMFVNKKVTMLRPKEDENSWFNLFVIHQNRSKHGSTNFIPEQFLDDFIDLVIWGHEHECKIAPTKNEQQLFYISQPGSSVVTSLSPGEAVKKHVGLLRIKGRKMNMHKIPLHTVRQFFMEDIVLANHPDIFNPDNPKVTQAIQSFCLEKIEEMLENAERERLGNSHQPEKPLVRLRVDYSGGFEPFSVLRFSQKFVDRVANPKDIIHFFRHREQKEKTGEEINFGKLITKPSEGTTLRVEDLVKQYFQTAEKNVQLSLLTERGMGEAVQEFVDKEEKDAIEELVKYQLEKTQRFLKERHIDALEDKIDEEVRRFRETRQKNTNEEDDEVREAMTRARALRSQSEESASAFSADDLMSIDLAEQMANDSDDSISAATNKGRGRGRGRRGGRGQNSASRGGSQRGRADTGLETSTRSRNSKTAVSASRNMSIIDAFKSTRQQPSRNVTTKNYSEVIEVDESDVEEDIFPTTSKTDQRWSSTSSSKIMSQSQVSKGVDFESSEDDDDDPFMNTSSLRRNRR

B1: RAGE EM-F/EM-R 64mer dsDNA probe (dsDNA)
DNA 1: GGACTCCAGGTCCAGGACCGCCGTTTTTCGCGCGCACGGCGCGGGAGGTCCAGCTGGTCCACCTCC
DNA 2: GGAGGTGGACCAGCTGGACCTCCCGCGCCGTGCGCGCGAAAAACGGCGGTCCTGGACCTGGAGTCC
[1]
  binding result: binds
[2]
  binding result: binds
